Measured values as given in patent publication US10245299B2, “Autoassembling peptides for the treatment of pulmonary bulla” (3-D MATRIX, LTD., priority 2014, dated 2019).

How the values were obtained:
Assay type in all cases: physicochemical
[1] = Gelation of peptide solutions after saline buffer treatment, time sweep; settings: saline buffer (0.15 M of NaCl); IEIK13 1.5%, KLD12 1.5%, PuraMatrix® 2.5% solution
Method: The effect of salt ionic strength level surrounding peptide solution on the properties of peptide solutions was evaluated to identify the possibility of peptide gelation when the peptide solution is placed into the environment where salt ionic strength level is high. […] Without pH effect, the effect of saline treatment on gelation of peptide solutions were evaluated. […] This is because IEIK13 is much more sensitive to salt ionic strength levels. Fast gelation of IEIK13 at the salt ionic strength level similar to body fluid isotonic salt level may generally improve its function and gelation speed for various clinical applications. The results are shown in FIG. 19 for IEIK13, KLD12 and PuraMatrix® solutions. Time sweep tests were performed at 1 rad/sec and at 1 Pa with 20 mm plates and 500 μm gap distance. […]

[2] = Gelation kinetics of pH adjusted peptides, time sweep with DMEM; settings: with pH adjustment; PuraMatrix® 2.5%, IEIK13 1.5% solution
Method: The effect of pH level on the properties of gelation kinetics was evaluated to identify optimized pH levels for the peptides as described herein. Fast gelation kinetics of PuraMatrix® and other peptides within body fluid may generally improve its function and response time for various clinical applications. The pH level may impart response time to begin gelation when treated with simulated body fluid including but not limited to DMEM. […] A fast response time of PuraMatrix® and other peptides within body fluid may generally improve its function and response time for various clinical applications.
(§1) Time sweep tests were performed at 1 rad/sec and at 1 Pa with 20 mm plates and 500 μm gap distance. During time sweep test of PuraMatrix® 2.5% solution, DMEM was added into the chamber surrounding the measuring plates to soak PuraMatrix® solution at 0 time point. The results are shown in FIG. 9A for PuraMatrix® 2.5% solution.
as §1, with “IEIK13 1.5%” for “PuraMatrix® 2.5%”, “IEIK13 1.5%” for “PuraMatrix®”, “point and continuously data was recorded.” for “point.”, “9B” for “9A”

[3] = Appearance of 1.5% peptide solutions with various salts at room temperature; settings: for Appearance: room temperature
Method: The effect of salt ionic strength level on the properties of peptide solutions was evaluated to identify optimized salt ionic strength levels for the peptides as described herein. Increasing the salt ionic strength level of PuraMatrix® and other peptides may generally improve its function and mechanical strength for various clinical applications. To adjust the salt ionic strength of the peptide solutions by way of example, various salt buffer solutions including NaCl, KCl, MgCl2, CaCl2 and DPBS (10×) were added to 2 mL of 1.5% peptide solutions.

## Arg-Ala-Asp-Ala-Arg-Ala-Asp-Ala-Arg-Ala-Asp-Ala-Arg-Ala-Asp-Ala [PuraMatrix®]
[1]
  gelation after saline buffer treatment: no or negligible gelation
[2]
  storage modulus response on DMEM addition: immediate storage modulus increase
[3]; PuraMatrix ® 0.5%, DPBS (pH 3.2) 1.0 M, ionic strength 1.0 M
  Appearance: Cloudy, phase-separated
[3]; PuraMatrix ® 0.55%, DPBS (pH 3.2) 0.95 M, ionic strength 0.95 M
  Appearance: Slightly cloudy, brittle gel
[3]; PuraMatrix ® 0.6%, DPBS (pH 3.2) 0.9 M, ionic strength 0.9 M
  Appearance: Clear, thick, stiffer gel
[3]; PuraMatrix ® 0.75%, DPBS (pH 3.2) 0.75 M, ionic strength 0.75 M
  Appearance: Clear, thick, stiffer gel
[3]; PuraMatrix ® 0.9%, DPBS (pH 3.2) 0.6 M, ionic strength 0.6 M
  Appearance: Clear, thick, stiffer gel
[3]; PuraMatrix ® 0.93%, KCl 1.15 M, ionic strength 1.15 M
  Appearance: Cloudy, phase-separated
[3]; PuraMatrix ® 0.95%, KCl 1.1 M, ionic strength 1.1 M
  Appearance: Slightly cloudy, brittle gel
[3]; PuraMatrix ® 0.98%, KCl 1.05 M, ionic strength 1.05 M
  Appearance: Slightly cloudy, thick, stiffer gel
[3]; PuraMatrix ® 1.0%, KCl 1.0 M, ionic strength 1.0 M
  Appearance: Clear, thick, stiffer gel
[3]; PuraMatrix ® 1.0%, NaCl 1.0 M, ionic strength 1.0 M
  Appearance: Cloudy, phase-separated
[3]; PuraMatrix ® 1.03%, KCl 0.95 M, ionic strength 0.95 M
  Appearance: Clear, thick, stiffer gel
[3]; PuraMatrix ® 1.03%, NaCl 0.95 M, ionic strength 0.95 M
  Appearance: Cloudy, phase-separated
[3]; PuraMatrix ® 1.05%, DPBS (pH 3.2) 0.45 M, ionic strength 0.45 M
  Appearance: Clear, thick, stiffer gel
[3]; PuraMatrix ® 1.05%, KCl 0.9 M, ionic strength 0.9 M
  Appearance: Clear, thick, stiffer gel
[3]; PuraMatrix ® 1.05%, NaCl 0.9 M, ionic strength 0.9 M
  Appearance: Slightly cloudy, brittle gel
[3]; PuraMatrix ® 1.08%, NaCl 0.85 M, ionic strength 0.85 M
  Appearance: Clear, thick, stiffer gel
[3]; PuraMatrix ® 1.10%, NaCl 0.8 M, ionic strength 0.8 M
  Appearance: Clear, thick, stiffer gel
[3]; PuraMatrix ® 1.13%, KCl 0.75 M, ionic strength 0.75 M
  Appearance: Clear, thick, stiffer gel
[3]; PuraMatrix ® 1.13%, NaCl 0.75 M, ionic strength 0.75 M
  Appearance: Clear, thick, stiffer gel
[3]; PuraMatrix ® 1.2%, DPBS (pH 3.2) 0.3 M, ionic strength 0.3 M
  Appearance: Clear, thick, stiffer gel
[3]; PuraMatrix ® 1.2%, KCl 0.6 M, ionic strength 0.6 M
  Appearance: Clear, thick, stiffer gel
[3]; PuraMatrix ® 1.2%, NaCl 0.6 M, ionic strength 0.6 M
  Appearance: Clear, thick, stiffer gel
[3]; PuraMatrix ® 1.27%, KCl 0.45 M, ionic strength 0.45 M
  Appearance: Clear, thick, stiffer gel
[3]; PuraMatrix ® 1.27%, NaCl 0.45 M, ionic strength 0.45 M
  Appearance: Clear, thick, stiffer gel
[3]; PuraMatrix ® 1.28%, CaCl2 0.433 M, ionic strength 1.3 M
  Appearance: Cloudy, phase-separated
[3]; PuraMatrix ® 1.28%, MgCl2 0.433 M, ionic strength 1.3 M
  Appearance: Cloudy, phase-separated
[3]; PuraMatrix ® 1.29%, CaCl2 0.417 M, ionic strength 1.25 M
  Appearance: Slightly cloudy, brittle gel
[3]; PuraMatrix ® 1.29%, MgCl2 0.417 M, ionic strength 1.25 M
  Appearance: Slightly cloudy, brittle gel
[3]; PuraMatrix ® 1.3%, CaCl2 0.4 M, ionic strength 1.2 M
  Appearance: Slightly cloudy, thick, stiffer gel
[3]; PuraMatrix ® 1.3%, MgCl2 0.4 M, ionic strength 1.2 M
  Appearance: Slightly cloudy, thick, stiffer gel
[3]; PuraMatrix ® 1.31%, CaCl2 0.383 M, ionic strength 1.15 M
  Appearance: Clear, thick, stiffer gel
[3]; PuraMatrix ® 1.31%, MgCl2 0.383 M, ionic strength 1.15 M
  Appearance: Clear, thick, stiffer gel
[3]; PuraMatrix ® 1.32%, CaCl2 0.35 M, ionic strength 1.05 M
  Appearance: Clear, thick, stiffer gel
[3]; PuraMatrix ® 1.32%, MgCl2 0.35 M, ionic strength 1.05 M
  Appearance: Clear, thick, stiffer gel
[3]; PuraMatrix ® 1.35%, CaCl2 0.3 M, ionic strength 0.9 M
  Appearance: Clear, thick, stiffer gel
[3]; PuraMatrix ® 1.35%, DPBS (pH 3.2) 0.15 M, ionic strength 0.15 M
  Appearance: Clear, thick, stiffer gel
[3]; PuraMatrix ® 1.35%, KCl 0.3 M, ionic strength 0.3 M
  Appearance: Clear, thick, stiffer gel
[3]; PuraMatrix ® 1.35%, MgCl2 0.3 M, ionic strength 0.9 M
  Appearance: Clear, thick, stiffer gel
[3]; PuraMatrix ® 1.35%, NaCl 0.3 M, ionic strength 0.3 M
  Appearance: Clear, thick, stiffer gel
[3]; PuraMatrix ® 1.38%, CaCl2 0.25 M, ionic strength 0.75 M
  Appearance: Clear, thick, stiffer gel
[3]; PuraMatrix ® 1.38%, MgCl2 0.25 M, ionic strength 0.75 M
  Appearance: Clear, thick, stiffer gel
[3]; PuraMatrix ® 1.4%, CaCl2 0.2 M, ionic strength 0.6 M
  Appearance: Clear, thick, stiffer gel
[3]; PuraMatrix ® 1.4%, MgCl2 0.2 M, ionic strength 0.6 M
  Appearance: Clear, thick, stiffer gel
[3]; PuraMatrix ® 1.43%, CaCl2 0.15 M, ionic strength 0.45 M
  Appearance: Clear, thick, stiffer gel
[3]; PuraMatrix ® 1.43%, KCl 0.15 M, ionic strength 0.15 M
  Appearance: Clear, thick, stiffer gel
[3]; PuraMatrix ® 1.43%, MgCl2 0.15 M, ionic strength 0.45 M
  Appearance: Clear, thick, stiffer gel
[3]; PuraMatrix ® 1.43%, NaCl 0.15 M, ionic strength 0.15 M
  Appearance: Clear, thick, stiffer gel
[3]; PuraMatrix ® 1.45%, CaCl2 0.1 M, ionic strength 0.3 M
  Appearance: Clear, thick, stiffer gel
[3]; PuraMatrix ® 1.45%, MgCl2 0.1 M, ionic strength 0.3 M
  Appearance: Clear, thick, stiffer gel
[3]; PuraMatrix ® 1.48%, CaCl2 0.05 M, ionic strength 0.15 M
  Appearance: Clear, thick, stiffer gel
[3]; PuraMatrix ® 1.48%, MgCl2 0.05 M, ionic strength 0.15 M
  Appearance: Clear, thick, stiffer gel
[3]; PuraMatrix ® 1.5%, CaCl2 0 M, ionic strength 0 M
  Appearance: Clear, thick gel
[3]; PuraMatrix ® 1.5%, DPBS (pH 3.2) 0 M, ionic strength 0 M
  Appearance: Clear, thick gel
[3]; PuraMatrix ® 1.5%, KCl 0 M, ionic strength 0 M
  Appearance: Clear, thick gel
[3]; PuraMatrix ® 1.5%, MgCl2 0 M, ionic strength 0 M
  Appearance: Clear, thick gel
[3]; PuraMatrix ® 1.5%, NaCl 0 M, ionic strength 0 M
  Appearance: Clear, thick gel
[3]; depending on different salts, 1.5% peptide solutions
  salt ionic strength increase that did not change the clear color of the solution (apparent stiffness increased): 0.85˜1.15 M
